In patent US20060233785A1, “Immunointeractive molecules and uses thereof” (priority 2001, published 2006):

Tests used:
latex-specific serum IgE = assay: ELISA detecting latex-specific serum IgE (Example 3); assay type: binding, human; conditions: ten latex-allergic patients; serum 1:10
Experimental: FIG. 3 is a graphical representation of an ELISA detecting latex-specific serum IgE. ELISA plates were coated with 10 μg/ml rHev b 6 and glove extract, blocked with skim milk powder and incubated with patient (P1-10) and non-allergic control serum (NA1-6) diluted 1:10. Antibody binding was detected by incubation with rabbit anti-human IgE, swine anti-rabbit immunoglobulines-HRP and o-phenylenediamine as substrate. Mean values+SD for triplicate wells are shown. The cut-off for positive was 2 SD above the mean OD of non-allergic subjects for rHev b 6 (dotted line) and glove extract (black line).
Hybridoma supernatants were tested for reactivity to rHev b 6, glove extract and Hev b 6 peptides by ELISA using an established protocol (Sutherland et al., 2002, supra). Patient serum samples were tested for latex-specific IgE using a similar ELISA protocol with rabbit anti-human IgE (1/1000) and swine anti-rabbit immunoglobulins-horseradish peroxidase conjugate (1/1000). Monoclonal antibody isotypes were determined using a mouse immunoglobulin isotyping ELISA kit (BD Biosciences, San Diego, Calif., USA).

[1] = Immunisation of mice with rHev b 6, serum ELISA; assay type: in vivo, BALB/c mice; conditions: eight mice; 20 μg intraperitoneally
Experimental: Monoclonal antibody production followed established protocols (Sutherland et al, 2002, supr; Goding, J. Monoclonal Antibodies: principles and practice 3rd ed. London: Academic Press. 492, 1996). Approval was obtained from the Monash University Animal Ethics Committee. Eight BALB/c mice were immunised with 20 μg rHev b 6 in 100 ill of PBS, intraperitoneally, three times at three weekly intervals. The first injection was given with Complete Freund's Adjuvant (100 μl; Sigma) and the two subsequent injections with Incomplete Freund's Adjuvant (100 μl; Sigma). Mice were finally boosted with 20 μg rHev b 6 in 200 μl PBS intraperitoneally 3 days before being sacrificed. Hybridomas were generated by fusing immune mouse spleen cells with murine myeloma cells (line X-63.Ag8.653; 17) and supernatants were screened for antibody to rHev b 6 and glove extract by performing a duplicate ELISA as described below. Positive hybridomas were expanded and cloned by limiting dilution.

B1: rHev b 6: recombinant Hev b 6 (prohevein) expressed in E. coli from pPROEX-HTa with 6-His tag (protein)
chain: EQCGRQAGGKLCPNNLCCSQWGWCGSTDEYCSPDHNCQSNCKDSGEGVGGGSASNVLATYHLYNSQDHGWDLNAASAYCSTWDANKPYSWRSKYGWTAFCGPVGAHGQSSCGKCLSVTNTGTGAKTTVRIVDQCSNGGLDLDVNVFRQLDTDGKGYERGHITVNYQFVDCGDSFNPLFSVMKSSVIN
modifications: left off: small tags and cut ends
notes: recombinant Hev b 6 (prohevein) expressed in E. coli from pPROEX-HTa with 6-His tag
number of latex-allergic patients with serum IgE binding by ELISA (latex-specific serum IgE): eight
number of immunised mice whose serum reacted with glove extract by ELISA [1]: seven
number of immunised mice with strong polyclonal immune response to rHev b 6 [1]: eight
